Legend:
[1] = biological target: T1, Human LILRA2 on transiently transfected HEK293-6E cells (human, UniProt Q8N149 24-483); experiment: flow cytometry, transiently transfected HEK293-6E cells
T1 construct: whole, on cells; also called hLILRA2
Protocol: (§1) To determine that the anti-LILRB2 antibodies specifically bind to LILRB2 and not other LILRB and LILRA family members, a cross-reactivity assay was performed. Cross-reactivity of the LILRB2 antibodies to other LILRB proteins was assessed by antibody binding to transiently transfected HEK293-6E cells, measured by flow cytometry. Binding was evaluated to HEK293-6E cells transiently transfected with human LILRB-1, -2, -3, -4, and 5 plasmids (Origene, Nos. RC219949, RC217935, RC211228, RC220932, RC206516) or to cells transiently transfected with human LILRA-1, -2, -4, -5, and -6 plasmids (Origene, Nos. RC210808, RC205626, RC220452, RC212310 RC212965). […] Murine primary antibodies to LILRA and LILRB targets and corresponding isotype controls were used to confirm specific binding of all targets tested (R&D Systems) while an AF647 F(ab′)₂ fragment goat anti-mouse antibody (Jackson ImmunoResearch, No. 115-606-062) was used for the detection of bound positive control antibodies. No binding of B2A-IgG4 or B2A-IgG1 to LILRB-1, -3, -4, or -5 was observed, and no binding of either antibody to LILRA-1, -2, -4, -5, or -6 was observed, confirming specificity of these antibodies.
(§2) Select humanized variant antibodies were tested for their ability to bind other LILRB or LILRA family members, using the method and commercially available positive control antibodies of Example 5.

[2] = biological target: T2, Human LILRA6 on transiently transfected HEK293-6E cells (human, UniProt Q6PI73 24-481); experiment: as above
T2 construct: whole, on cells; also called hLILRA6
T2 sequence (Q6PI73 24-481): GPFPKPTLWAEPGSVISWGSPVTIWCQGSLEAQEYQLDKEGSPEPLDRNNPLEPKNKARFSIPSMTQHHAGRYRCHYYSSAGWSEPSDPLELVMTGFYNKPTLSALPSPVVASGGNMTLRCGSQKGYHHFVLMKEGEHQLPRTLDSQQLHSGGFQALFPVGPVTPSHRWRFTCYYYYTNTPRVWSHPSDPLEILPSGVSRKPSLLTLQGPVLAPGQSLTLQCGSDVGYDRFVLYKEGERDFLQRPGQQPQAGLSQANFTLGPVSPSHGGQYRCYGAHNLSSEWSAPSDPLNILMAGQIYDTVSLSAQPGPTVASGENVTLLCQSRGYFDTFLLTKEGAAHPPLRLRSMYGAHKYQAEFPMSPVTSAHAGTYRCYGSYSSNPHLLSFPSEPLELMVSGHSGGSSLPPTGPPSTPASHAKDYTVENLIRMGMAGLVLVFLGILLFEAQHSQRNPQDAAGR
Protocol: as §1, §2

[3] = biological target: T3, Human LILRB1 on transiently transfected HEK293-6E cells (human, UniProt Q8NHL6 24-650); experiment: as above
T3 construct: whole, on cells; also called hLILRB1
T3 sequence (Q8NHL6 24-650): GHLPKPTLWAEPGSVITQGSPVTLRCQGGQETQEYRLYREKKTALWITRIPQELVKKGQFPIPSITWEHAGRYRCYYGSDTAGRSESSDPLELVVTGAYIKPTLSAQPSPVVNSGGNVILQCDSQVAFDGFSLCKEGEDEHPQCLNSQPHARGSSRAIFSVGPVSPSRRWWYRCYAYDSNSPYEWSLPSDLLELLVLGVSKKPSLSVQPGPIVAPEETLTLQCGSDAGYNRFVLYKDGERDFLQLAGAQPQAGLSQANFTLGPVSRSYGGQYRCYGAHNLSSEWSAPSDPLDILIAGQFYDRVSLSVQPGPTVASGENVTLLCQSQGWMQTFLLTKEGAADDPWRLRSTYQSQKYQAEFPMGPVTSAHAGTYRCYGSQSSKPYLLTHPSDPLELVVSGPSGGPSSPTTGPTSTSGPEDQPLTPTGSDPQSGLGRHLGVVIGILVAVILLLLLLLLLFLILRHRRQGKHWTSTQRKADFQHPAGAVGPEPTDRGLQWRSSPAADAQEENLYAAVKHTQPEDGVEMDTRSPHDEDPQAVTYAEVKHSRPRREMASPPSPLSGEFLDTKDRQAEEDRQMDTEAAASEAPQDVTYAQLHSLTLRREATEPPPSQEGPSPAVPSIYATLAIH
Protocol: as §1, §2

[4] = biological target: T4, Human LILRB3 on transiently transfected HEK293-6E cells (human, UniProt O75022 24-631); experiment: as above
T4 construct: whole, on cells; also called hLILRB3
Protocol: as §1, §2

[5] = biological target: T5, Human LILRB4 on transiently transfected HEK293-6E cells (human, UniProt Q8NHJ6 22-448); experiment: as above
T5 construct: whole, on cells; also called hLILRB4
Protocol: as §1, §2

[6] = biological target: T6, Human LILRB5 on transiently transfected HEK293-6E cells (human, UniProt O75023 24-590); experiment: as above
T6 construct: whole, on cells; also called hLILRB5
T6 sequence (O75023 24-590): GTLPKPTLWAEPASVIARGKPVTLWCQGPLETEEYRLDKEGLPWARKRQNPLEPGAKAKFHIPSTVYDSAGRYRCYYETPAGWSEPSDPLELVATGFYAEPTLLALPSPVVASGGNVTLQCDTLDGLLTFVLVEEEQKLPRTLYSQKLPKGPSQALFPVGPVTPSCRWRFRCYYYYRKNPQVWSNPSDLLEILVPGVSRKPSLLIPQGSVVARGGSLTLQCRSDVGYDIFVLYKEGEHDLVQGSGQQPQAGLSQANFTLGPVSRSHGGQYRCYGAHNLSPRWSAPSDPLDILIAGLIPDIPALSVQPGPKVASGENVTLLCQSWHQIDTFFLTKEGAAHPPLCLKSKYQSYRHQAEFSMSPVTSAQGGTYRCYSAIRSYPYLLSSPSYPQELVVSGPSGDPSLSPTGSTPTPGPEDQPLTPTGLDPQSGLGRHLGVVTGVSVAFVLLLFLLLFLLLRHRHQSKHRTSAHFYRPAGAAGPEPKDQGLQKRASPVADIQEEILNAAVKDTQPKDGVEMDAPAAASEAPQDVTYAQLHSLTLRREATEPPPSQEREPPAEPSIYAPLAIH
Protocol: as §1, §2

[7] = biological target: T7, Recombinant human LILRB2 protein (ELISA antigen) (human, UniProt Q8N423 22-460); experiment: ELISA, plate-coated recombinant human LILRB2
T7 construct: also called LILRB2-His; recombinant LILRB2
T7 sequence (Q8N423 other isoform, or with tags, fused parts or gaps limits assumed): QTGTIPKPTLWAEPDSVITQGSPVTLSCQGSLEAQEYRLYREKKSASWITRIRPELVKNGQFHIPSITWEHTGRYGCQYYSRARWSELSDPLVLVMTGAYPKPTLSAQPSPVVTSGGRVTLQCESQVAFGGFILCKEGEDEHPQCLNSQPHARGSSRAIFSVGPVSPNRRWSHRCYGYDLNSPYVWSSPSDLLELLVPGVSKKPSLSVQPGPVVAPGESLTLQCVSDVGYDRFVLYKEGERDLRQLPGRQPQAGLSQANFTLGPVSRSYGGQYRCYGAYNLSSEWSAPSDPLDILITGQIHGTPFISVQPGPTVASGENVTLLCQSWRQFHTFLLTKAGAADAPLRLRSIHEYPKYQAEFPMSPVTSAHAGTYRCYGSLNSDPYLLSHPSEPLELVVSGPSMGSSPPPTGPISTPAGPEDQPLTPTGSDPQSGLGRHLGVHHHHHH
Protocol: To confirm binding to human and cynomolgus LILRB2, antibodies in supernatants were evaluated for binding by enzyme-linked immunosorbent assay (ELISA). Recombinant LILRB2 proteins (human: SEQ ID NO: 48; cynomolgus) were diluted in PBS to 2 μg/mL and added to 384-well high-binding ELISA plates (Greiner Bio-One Microlon™) at 25 μL/well and incubated at 4° C. overnight. The plates were washed three times with Wash Buffer (0.05% Tween® 20 in PBS), using a microplate washer and then blocked with 90 μL/well of ELISA Blocking Buffer A (1% BSA in PBS) for 1 hour at room temperature (RT). After blocking, 25 μL/well of LILRB2 antibodies or isotype control were added to the plates and incubated for 1 hour at RT. After primary antibody binding, plates were washed three times with Wash Buffer using a microplate washer. Secondary detection antibody (HRP-goat anti-rabbit Fab fragment) was diluted to 1:3000 in assay diluent (1% BSA in PBS) and 25 μL/well was added to plates and incubated at RT protected from light for 1 hour. Following incubation, plates were washed four times with Wash Buffer, using a microplate washer. […] After development, the reaction was stopped by addition of 25 μL/well of 0.3 M HCl, and plates were read using an EnVision (Perkin Elmer) microplate reader at 450 nm. EC₅₀ values were calculated based on log concentration of the primary antibodies at optical density at 450 nm.

[8] = biological target: T8, Human LILRB2 on stably transduced HEK293T cells (human, UniProt Q8N423 22-597); experiment: flow cytometry, HEK293T cells stably expressing human LILRB2
T8 construct: Lentiviral transduction (G&P Biosciences LTV2992); also called HEK293T-LILRB2; LILRB2-expressing HEK293T cells
T8 sequence (Q8N423 other isoform, or with tags, fused parts or gaps limits assumed): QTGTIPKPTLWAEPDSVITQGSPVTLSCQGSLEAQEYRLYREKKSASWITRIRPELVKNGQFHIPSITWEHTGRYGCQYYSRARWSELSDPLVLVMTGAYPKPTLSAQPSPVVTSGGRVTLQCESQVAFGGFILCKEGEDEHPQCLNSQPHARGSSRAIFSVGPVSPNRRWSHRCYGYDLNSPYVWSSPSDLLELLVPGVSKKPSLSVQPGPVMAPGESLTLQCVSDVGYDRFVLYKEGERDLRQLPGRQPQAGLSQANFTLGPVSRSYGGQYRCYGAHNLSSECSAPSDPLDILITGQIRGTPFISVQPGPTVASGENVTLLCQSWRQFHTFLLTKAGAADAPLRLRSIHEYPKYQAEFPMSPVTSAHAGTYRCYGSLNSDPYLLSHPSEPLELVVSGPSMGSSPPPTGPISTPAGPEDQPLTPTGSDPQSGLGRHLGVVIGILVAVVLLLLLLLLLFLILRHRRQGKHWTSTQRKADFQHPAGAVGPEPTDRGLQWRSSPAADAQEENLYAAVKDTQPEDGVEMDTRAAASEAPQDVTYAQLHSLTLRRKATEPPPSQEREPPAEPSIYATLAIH
Protocol: To confirm binding of LILRB2 antibodies, flow cytometry binding assays were performed using HEK293T cells stably expressing human LILRB2 (Example 3). […] The B2A-IgG1 and B2A-IgG4 chimeras bound the LILRB2-expressing HEK293T cells, with equivalent EC₅₀ values of 0.21 nM and 0.30 nM respectively.

T1 sequence (Q8N149 24-483): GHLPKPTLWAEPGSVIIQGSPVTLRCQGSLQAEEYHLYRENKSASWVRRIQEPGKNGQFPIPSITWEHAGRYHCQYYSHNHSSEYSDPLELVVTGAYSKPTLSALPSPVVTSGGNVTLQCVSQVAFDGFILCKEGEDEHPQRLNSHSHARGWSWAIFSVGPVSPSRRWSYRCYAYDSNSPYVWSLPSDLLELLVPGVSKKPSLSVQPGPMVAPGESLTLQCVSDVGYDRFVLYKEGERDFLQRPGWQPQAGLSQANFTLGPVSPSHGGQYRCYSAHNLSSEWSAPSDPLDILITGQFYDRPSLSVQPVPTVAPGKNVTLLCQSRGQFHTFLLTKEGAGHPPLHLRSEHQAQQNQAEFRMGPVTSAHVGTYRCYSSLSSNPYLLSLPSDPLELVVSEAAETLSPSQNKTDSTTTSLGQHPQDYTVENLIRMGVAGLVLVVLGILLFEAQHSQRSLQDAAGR

B1: B2H1-55 (antibody, V domains shown)
VH: EVQLLESGGGLVQPGTSLTLSCAASGFSLSTYAMSWVRQAPGKGLEWIGWIYNDGSTYYAAWAKGRFTISKDTSKTTLYLQITSLRAEDTATYFCAREGDYIGYFNIWGQGTLVTVSS
VL: DVVMTQTPSSVSAALGGTVTIKCQASQSIGSNLAWYQLKPGQRPKLLIYAAATLASGGSSRFKGSGSGTDFTLTISSLEPADAATYYCQSYVSGSSDVAFGGGTEVVVK
notes: Humanized variant, human IgG1 / kappa; also called humanized variant B2H1-55; humanized LILRB2 antibody B2H1-55
Q: Which results are given for B1?
A: Bmax (MFI) [1]: 37.7 MFI; Bmax (MFI) [2]: 214 MFI; Bmax (MFI) [3]: 41.4 MFI; Bmax (MFI) [4]: 154 MFI; Bmax (MFI) [5]: 40.3 MFI; Bmax (MFI) [6]: 138 MFI

B2: B2A-IgG1 (antibody)
heavy: not shown
light: DVVMTQTPSSVSAALGGTVTIKCQASQSIGSNLAWYQLKPGQRPKLLIYAAATLASGGSSRFKGSGSGTDFTLTISDLECADAATYYCQSYVSGSSDVAFGGGTEVVVKRTVAAPSVFIFPPSDEQLKSGTASVVCLLNNFYPREAKVQWKVDNALQSGNSQESVTEQDSKDSTYSLSSTLTLSKADYEKHKVYACEVTHQGLSSPVTKSFNRGEC
notes: Rabbit variable regions on human IgG1 / kappa constant regions; AF647-conjugated in some flow assays; also called B2A-IgG1 chimera; anti-LILRB2 B2A-IgG1
Q: For B2, which EC50 [7] is on record?
A: 3.81 ng/mL

Q: And the “Bmax (MFI)” value [1]?
A: 40.4 MFI

Q: And the “Bmax (MFI)” value [2]?
A: 211 MFI

Q: What about the “Bmax (MFI)” value [3] of the same binder?
A: 41.9 MFI

Q: And the “Bmax (MFI)” value [4]?
A: 163 MFI

Q: What about the “Bmax (MFI)” value [5] of the same binder?
A: 41.4 MFI

Q: And the “Bmax (MFI)” value [6]?
A: 147 MFI

Q: What about the EC50 [8] of the same binder?
A: 0.21 nM

B3: B2A-IgG4 (antibody)
heavy: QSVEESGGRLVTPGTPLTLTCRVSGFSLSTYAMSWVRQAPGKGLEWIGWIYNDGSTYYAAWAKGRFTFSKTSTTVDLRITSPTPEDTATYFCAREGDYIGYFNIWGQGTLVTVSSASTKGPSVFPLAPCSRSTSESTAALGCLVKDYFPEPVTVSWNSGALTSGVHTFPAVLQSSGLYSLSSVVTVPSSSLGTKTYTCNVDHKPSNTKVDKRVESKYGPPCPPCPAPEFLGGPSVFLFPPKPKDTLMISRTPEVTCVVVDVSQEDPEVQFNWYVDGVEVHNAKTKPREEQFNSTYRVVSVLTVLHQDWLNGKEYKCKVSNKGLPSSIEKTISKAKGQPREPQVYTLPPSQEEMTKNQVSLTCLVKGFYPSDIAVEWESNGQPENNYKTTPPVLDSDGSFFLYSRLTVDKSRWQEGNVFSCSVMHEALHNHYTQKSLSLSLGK
light: DVVMTQTPSSVSAALGGTVTIKCQASQSIGSNLAWYQLKPGQRPKLLIYAAATLASGGSSRFKGSGSGTDFTLTISDLECADAATYYCQSYVSGSSDVAFGGGTEVVVKRTVAAPSVFIFPPSDEQLKSGTASVVCLLNNFYPREAKVQWKVDNALQSGNSQESVTEQDSKDSTYSLSSTLTLSKADYEKHKVYACEVTHQGLSSPVTKSFNRGEC
notes: Rabbit variable regions on human IgG4 / kappa constant regions; also called B2A-IgG4 chimera; Parent B2A-IgG4
Q: B3 was tested. Which EC50 [8] did it give?
A: 0.3 nM

From patent US20240132589A1 (ONCORESPONSE, published 2024)
